Measured values reported in patent publication US20230272064A1.

Assays:
[1] = biological target: recombinant human TIGIT extracellular membrane protein with a C-terminal histidine tag (human) (UniProt Q495A1); test: competitive ELISA, TIGIT-His coated, competitor fixed biotin-CD155-Fc (signal), mAb at 5 µg/mL
[2] = biological target: recombinant human TIGIT extracellular membrane protein with a C-terminal histidine tag (human) (UniProt Q495A1); test: competitive ELISA, TIGIT-His coated, competitor fixed biotin-CD155-Fc (signal), mAb at 10 µg/mL
[3] = biological target: recombinant human TIGIT extracellular membrane protein with a C-terminal histidine tag (human) (UniProt Q495A1); test: competitive ELISA, TIGIT-His coated, competitor fixed biotin-CD155-Fc (signal), mAb at 2.5 µg/mL
[4] = biological target: recombinant human TIGIT extracellular membrane protein with a C-terminal histidine tag (human) (UniProt Q495A1); test: competitive ELISA, TIGIT-His coated, competitor fixed biotin-CD155-Fc (signal), mAb at 1.25 µg/mL
[5] = biological target: recombinant human TIGIT extracellular membrane protein with a C-terminal histidine tag (human) (UniProt Q495A1); test: competitive ELISA, TIGIT-His coated, competitor fixed biotin-CD155-Fc (signal), mAb at 0.005 µg/mL
[6] = biological target: recombinant human TIGIT extracellular membrane protein with a C-terminal histidine tag (human) (UniProt Q495A1); test: competitive ELISA, TIGIT-His coated, competitor fixed biotin-CD155-Fc (signal), mAb at 0.010 µg/mL
[7] = biological target: recombinant human TIGIT extracellular membrane protein with a C-terminal histidine tag (human) (UniProt Q495A1); test: competitive ELISA, TIGIT-His coated, competitor fixed biotin-CD155-Fc (signal), mAb at 0.019 µg/mL
[8] = biological target: recombinant human TIGIT extracellular membrane protein with a C-terminal histidine tag (human) (UniProt Q495A1); test: competitive ELISA, TIGIT-His coated, competitor fixed biotin-CD155-Fc (signal), mAb at 0.039 µg/mL
[9] = biological target: recombinant human TIGIT extracellular membrane protein with a C-terminal histidine tag (human) (UniProt Q495A1); test: competitive ELISA, TIGIT-His coated, competitor fixed biotin-CD155-Fc (signal), mAb at 0.078 µg/mL
[10] = biological target: recombinant human TIGIT extracellular membrane protein with a C-terminal histidine tag (human) (UniProt Q495A1); test: competitive ELISA, TIGIT-His coated, competitor fixed biotin-CD155-Fc (signal), mAb at 0.156 µg/mL
[11] = biological target: recombinant human TIGIT extracellular membrane protein with a C-terminal histidine tag (human) (UniProt Q495A1); test: competitive ELISA, TIGIT-His coated, competitor fixed biotin-CD155-Fc (signal), mAb at 0.312 µg/mL
[12] = biological target: recombinant human TIGIT extracellular membrane protein with a C-terminal histidine tag (human) (UniProt Q495A1); test: competitive ELISA, TIGIT-His coated, competitor fixed biotin-CD155-Fc (signal), mAb at 0.625 µg/mL

Chain of recombinant human TIGIT extracellular membrane protein with a C-terminal histidine tag (human) (Q495A1 22-141): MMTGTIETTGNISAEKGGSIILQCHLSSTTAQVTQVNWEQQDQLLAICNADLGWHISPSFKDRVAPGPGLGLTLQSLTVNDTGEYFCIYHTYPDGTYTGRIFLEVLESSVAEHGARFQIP

OD at 492 nm [1]: 1.1 OD
OD at 492 nm [2]: 1.11 OD
OD at 492 nm [3]: 1.07 OD
OD at 492 nm [4]: 1.08 OD
OD at 492 nm [5]: 1.11 OD
OD at 492 nm [6]: 1.1 OD
OD at 492 nm [7]: 1.08 OD
OD at 492 nm [8]: 1.05 OD
OD at 492 nm [9]: 1.05 OD
OD at 492 nm [10]: 1.05 OD
OD at 492 nm [11]: 1.03 OD
OD at 492 nm [12]: 1.06 OD
Substance: anti-VEGF monoclonal antibody hPV19
